Experiment [1] addresses BfpD, type IV pilus (bundle-forming pilus) extension ATPase from enteropathogenic Escherichia coli (enteropathogenic Escherichia coli (EPEC)). The experiment is described as follows: cryo-EM structure.
Experiment [2] shares this target. Briefly: negative-stain electron microscopy with reference-free 2D averaging.

As usually defined, the stoichiometry N is a count of units in the complex or per binding partner. “BfpD, type IV pilus (bundle-forming pilus) extension ATPase from enteropathogenic Escherichia coli (enzyme)”: the stoichiometry N in experiment [1] and in experiment [2] was 6 each time.
